Patent US20140329275A1, “BIOCATALYSIS CELLS AND METHODS” (REGENTS OF THE UNIVERSITY OF MINNESOTA, priority 2011, published 2014)

Substrate: CC(C)CC=O
Test: Enzymatic assay of PadA
Format: biochemical, E. coli
Settings: other: 0.5 mM NAD+, pH 8.0, 25 nM PadA
Experimental: Protein concentration was measured by UV absorbance at 280 nm. […] Enzymatic reactions were initiated by adding 25 nM PadA. The reactions were monitored by measuring the UV absorbance at 340 nm (extinction coefficient, 6.22 mM^−1 cm^−1) as a consequence of NADH generation.

B1: PadA (Escherichia coli K-12) (protein)
chain: MTEPHVAVLSQVQQFLDRQHGLYIDGRPGPAQSEKRLAIFDPATGQEIASTADANEADVDNAVMSAWRAFVSRRWAGRLPAERERILLRFADLVEQHSEELAQLETLEQGKSIAISRAFEVGCTLNWMRYTAGLTTKIAGKTLDLSIPLPQGARYQAWTRKEPVGVVAGIVPWNFPLMIGMWKVMPALAAGCSIVIKPSETTPLTMLRVAELASEAGIPDGVFNVVTGSGAVCGAALTSHPHVAKISFTGSTATGKGIARTAADHLTRVTLELGGKNPAIVLKDADPQWVIEGLMTGSFLNQGQVCAASSRIYIEAPLFDTLVSGFEQAVKSLQVGPGMSPVAQINPLVSRAHCDKVCSFLDDAQAQQAELIRGSNGPAGEGYYVAPTLVVNPDAKLRLTREEVFGPVVNLVRVADGEEALQLANDTEYGLTASVWTQNLSQALEYSDRLQAGTVWVNSHTLIDANLPFGGMKQSGTGRDFGPDWLDGWCETKSVCVRY
notes: made in house
Km: 1946 µM | kcat: 18.6 s⁻¹
